Measurements from patent US20060067886A1, “Gastrin receptor-avid peptide conjugates” (priority 1997, published 2006).

Test system: PC-3 human tumor xenografts
Assay: in vivo
Protocol: In vivo pharmacokinetic studies in human tumor bearing SCID mice. […] The xenograft models were produced by bilateral flank inoculation of 5×10^6 cells (PC-3 or MDA-MB-231 cells) per site. Four to six weeks post inoculation, palpable tumors were observed. At this point, the mice were injected with 4 μCi of the complex in […] of isotonic saline via the tail vein. The mice were euthanized and tissues and organs were excised from the animals at selected times post-injection (p.i.), including 15 minutes, 30 minutes, 1 hour, 4 hours, 24 hours, 48 hours, and 72 hours p.i. Subsequently, the tissues and organs were weighed and counted in a NaI well counter and the percent injected dose (% ID) and % ID/g of each organ or tissue calculated.
The mice were injected with 4 μCi of the complex in 100 μL of isotonic saline via the tail vein. The mice were euthanized by cervical dislocation. Tissues and organs were excised from the animals following at 1 hour, 4 hour, and 24 hours post-injection (p.i.). Subsequently, the tissues and organs were weighed and counted in a NaI well counter and the percent injected dose (% ID) and % ID/g of each organ or tissue calculated.

SMILES: CSCC[C@H](NC(=O)[C@H](CC(C)C)NC(=O)[C@H](Cc1cnc[nH]1)NC(=O)CNC(=O)[C@@H](NC(=O)[C@H](C)NC(=O)[C@H](Cc1c[nH]c2ccccc12)NC(=O)[C@H](CCC(N)=O)NC(=O)CCCCCCCNC(=O)CN1CCN(CC(=O)O)CCN(CC(=O)O)CCN(CC(=O)O)CC1)C(C)C)C(N)=O [90Y-DOTA-8-Aoc-BBN[7-14]NH2] [metal not drawn]
- Avg % ID, Blood (1 hr): 0.56 ± 0.20 % ID
- Avg % ID, Carcass (1 hr): 0.62 ± 0.44 % ID
- Avg % ID, Kidney (1 hr): 1.22 ± 0.46 % ID
- Avg % ID, L. Intestine (1 hr): 2.44 ± 0.66 % ID
- Avg % ID, Lung (1 hr): 0.06 ± 0.03 % ID
- Avg % ID, Muscle (1 hr): 0.02 ± 0.02 % ID
- Avg % ID, Pancreas (1 hr): 5.70 ± 1.60 % ID
- Avg % ID, S. Intestine (1 hr): 4.65 ± 0.98 % ID
- Avg % ID, Spleen (1 hr): 0.07 ± 0.04 % ID
- Avg % ID, Urine (1 hr): 57.73 ± 14.52 % ID
- Avg % ID/gm, Blood (1 hr): 0.34 ± 0.12 % ID/gm
- Avg % ID/gm, Heart (1 hr): 0.10 ± 0.11 % ID/gm
- Avg % ID/gm, Lung (1 hr): 0.22 ± 0.12 % ID/gm
- Avg % ID/gm, Muscle (1 hr): 0.15 ± 0.19 % ID/gm
- Avg % ID/gm, Pancreas (1 hr): 24.73 ± 4.97 % ID/gm
- Avg % ID/gm, Spleen (1 hr): 1.09 ± 0.67 % ID/gm
- Avg % ID/gm, Stomach (1 hr): 1.34 ± 0.64 % ID/gm
- Avg % ID/gm, Tumor (1 hr): 2.95±0.99 % ID/gm
- Avg % ID, Blood (4 hrs): 0.09 ± 0.13 % ID
- Avg % ID, Carcass (4 hrs): 0.14 ± 0.11 % ID
- Avg % ID, Kidney (4 hrs): 0.54 ± 0.25 % ID
- Avg % ID, L. Intestine (4 hrs): 3.33 ± 0.71 % ID
- Avg % ID, Liver (4 hrs): 0.19 ± 0.13 % ID
- Avg % ID, Pancreas (4 hrs): 3.42 ± 0.82 % ID
- Avg % ID, S. Intestine (4 hrs): 2.06 ± 1.27 % ID
- Avg % ID, Spleen (4 hrs): 0.02 ± 0.03 % ID
- Avg % ID, Stomach (4 hrs): 0.18 ± 0.06 % ID
- Avg % ID, Tumor (4 hrs): 0.34 ± 0.22 % ID
- Avg % ID, Urine (4 hrs): 67.02 ± 16.74 % ID
- Avg % ID/gm, Blood (4 hrs): 0.05 ± 0.07 % ID/gm
- Avg % ID/gm, Heart (4 hrs): 0.10 ± 0.14 % ID/gm
- Avg % ID/gm, Kidney (4 hrs): 1.68 ± 0.76 % ID/gm
- Avg % ID/gm, L. Intestine (4 hrs): 5.17 ± 1.85 % ID/gm
- Avg % ID/gm, Liver (4 hrs): 0.18 ± 0.12 % ID/gm
- Avg % ID/gm, Lung (4 hrs): 0.07 ± 0.07 % ID/gm
- Avg % ID/gm, Muscle (4 hrs): 0.07 ± 0.13 % ID/gm
- Avg % ID/gm, Pancreas (4 hrs): 14.02 ± 4.89 % ID/gm
- Avg % ID/gm, S. Intestine (4 hrs): 1.66 ± 0.91 % ID/gm
- Avg % ID/gm, Stomach (4 hrs): 0.55 ± 0.16 % ID/gm
- Avg % ID/gm, Tumor (4 hrs): 1.98±0.66 % ID/gm
- Avg % ID, Blood (24 hrs): 0.12 ± 0.14 % ID
- Avg % ID, Feces (24 hrs): 10.71 ± 8.29 % ID
- Avg % ID, Heart (24 hrs): 0.00 ± 0.00 % ID
- Avg % ID, Kidney (24 hrs): 0.17 ± 0.09 % ID
- Avg % ID, L. Intestine (24 hrs): 1.11 ± 0.75 % ID
- Avg % ID, Liver (24 hrs): 0.10 ± 0.03 % ID
- Avg % ID, Lung (24 hrs): 0.00 ± 0.00 % ID
- Avg % ID, Muscle (24 hrs): 0.00 ± 0.01 % ID
- Avg % ID, S. Intestine (24 hrs): 0.51 ± 0.20 % ID
- Avg % ID, Tumor (24 hrs): 0.16 ± 0.09 % ID
- Avg % ID, Urine (24 hrs): 67.62 ± 17.26 % ID
- Avg % ID/gm, Blood (24 hrs): 0.07 ± 0.08 % ID/gm
- Avg % ID/gm, Heart (24 hrs): 0.00 ± 0.00 % ID/gm
- Avg % ID/gm, Kidney (24 hrs): 0.51 ± 0.25 % ID/gm
- Avg % ID/gm, L. Intestine (24 hrs): 1.27 ± 0.92 % ID/gm
- Avg % ID/gm, Liver (24 hrs): 0.08 ± 0.03 % ID/gm
- Avg % ID/gm, Lung (24 hrs): 0.01 ± 0.02 % ID/gm
- Avg % ID/gm, Muscle (24 hrs): 0.02 ± 0.03 % ID/gm
- Avg % ID/gm, Pancreas (24 hrs): 1.80 ± 0.57 % ID/gm
- Avg % ID/gm, Spleen (24 hrs): 0.11 ± 0.13 % ID/gm
- Avg % ID/gm, Stomach (24 hrs): 0.09 ± 0.07 % ID/gm
- Avg % ID/gm, Tumor (24 hrs): 1.08±0.37 % ID/gm
- Avg % ID, Blood (48 hrs): 0.10 ± 0.14 % ID
- Avg % ID, Carcass (48 hrs): 0.11 ± 0.17 % ID
- Avg % ID, Heart (48 hrs): 0.02 ± 0.02 % ID
- Avg % ID, Kidney (48 hrs): 0.10 ± 0.04 % ID
- Avg % ID, Pancreas (48 hrs): 0.15 ± 0.04 % ID
- Avg % ID, S. Intestine (48 hrs): 0.16 ± 0.06 % ID
- Avg % ID, Tumor (48 hrs): 0.11 ± 0.07 % ID
- Avg % ID, Urine (48 hrs): 76.74 ± 21.06 % ID
- Avg % ID/gm, Blood (48 hrs): 0.06 ± 0.08 % ID/gm
- Avg % ID/gm, Heart (48 hrs): 0.14 ± 0.19 % ID/gm
- Avg % ID/gm, Kidney (48 hrs): 0.29 ± 0.12 % ID/gm
- Avg % ID/gm, L. Intestine (48 hrs): 0.77 ± 0.15 % ID/gm
- Avg % ID/gm, Muscle (48 hrs): 0.07 ± 0.13 % ID/gm
- Avg % ID/gm, Pancreas (48 hrs): 0.59 ± 0.14 % ID/gm
- Avg % ID/gm, S. Intestine (48 hrs): 0.13 ± 0.04 % ID/gm
- Avg % ID/gm, Spleen (48 hrs): 0.09 ± 0.24 % ID/gm
- Avg % ID/gm, Tumor (48 hrs): 0.58 ± 0.30 % ID/gm
- Avg % ID, Blood (72 hrs): 0.11 ± 0.15 % ID
- Avg % ID, Carcass (72 hrs): 0.10 ± 0.11 % ID
- Avg % ID, Kidney (72 hrs): 0.13 ± 0.07 % ID
- Avg % ID, Liver (72 hrs): 0.08 ± 0.11 % ID
- Avg % ID, Lung (72 hrs): 0.00 ± 0.01 % ID
- Avg % ID, Pancreas (72 hrs): 0.08 ± 0.05 % ID
- Avg % ID, S. Intestine (72 hrs): 0.11 ± 0.07 % ID
- Avg % ID, Spleen (72 hrs): 0.02 ± 0.01 % ID
- Avg % ID, Tumor (72 hrs): 0.06 ± 0.06 % ID
- Avg % ID, Urine (72 hrs): 82.97 ± 25.39 % ID
- Avg % ID/gm, Blood (72 hrs): 0.06 ± 0.09 % ID/gm
- Avg % ID/gm, Kidney (72 hrs): 0.43 ± 0.29 % ID/gm
- Avg % ID/gm, L. Intestine (72 hrs): 0.47 ± 0.24 % ID/gm
- Avg % ID/gm, Liver (72 hrs): 0.08 ± 0.11 % ID/gm
- Avg % ID/gm, Lung (72 hrs): 0.02 ± 0.03 % ID/gm
- Avg % ID/gm, Muscle (72 hrs): 0.08 ± 0.19 % ID/gm
- Avg % ID/gm, Pancreas (72 hrs): 0.27 ± 0.17 % ID/gm
- Avg % ID/gm, S. Intestine (72 hrs): 0.08 ± 0.05 % ID/gm
- Avg % ID/gm, Spleen (72 hrs): 0.28 ± 0.26 % ID/gm
- Avg % ID/gm, Stomach (72 hrs): 0.07 ± 0.03 % ID/gm
- Avg % ID/gm, Tumor (72 hrs): 0.46 ± 0.48 % ID/gm
